Test results published in patent US20250382376A1 (FUDAN UNIVERSITY, published 2025).

T1: CD73 on the surface of human cells (human, UniProt P21589 27-549)
T1 sequence (looked up): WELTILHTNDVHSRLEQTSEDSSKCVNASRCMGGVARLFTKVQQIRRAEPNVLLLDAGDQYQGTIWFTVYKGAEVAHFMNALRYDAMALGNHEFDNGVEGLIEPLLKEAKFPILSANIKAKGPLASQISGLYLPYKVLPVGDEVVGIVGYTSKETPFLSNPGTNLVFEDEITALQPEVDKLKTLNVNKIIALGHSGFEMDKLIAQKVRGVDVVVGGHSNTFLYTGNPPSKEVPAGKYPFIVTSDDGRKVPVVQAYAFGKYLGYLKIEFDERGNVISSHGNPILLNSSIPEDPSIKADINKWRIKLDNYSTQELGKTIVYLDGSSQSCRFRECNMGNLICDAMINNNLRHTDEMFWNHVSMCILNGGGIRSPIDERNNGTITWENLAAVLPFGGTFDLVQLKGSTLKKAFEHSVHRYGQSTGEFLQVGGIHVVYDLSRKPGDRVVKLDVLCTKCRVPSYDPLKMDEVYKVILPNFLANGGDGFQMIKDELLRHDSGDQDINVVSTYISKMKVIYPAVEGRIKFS

T2: extracellular domain of human CD73 protein, C-terminus polyhistidine-tagged (human, UniProt P21589 27-547)
T2 construct: also the immunogen; also called CD73-ECD; human CD73-ECD
T2 sequence: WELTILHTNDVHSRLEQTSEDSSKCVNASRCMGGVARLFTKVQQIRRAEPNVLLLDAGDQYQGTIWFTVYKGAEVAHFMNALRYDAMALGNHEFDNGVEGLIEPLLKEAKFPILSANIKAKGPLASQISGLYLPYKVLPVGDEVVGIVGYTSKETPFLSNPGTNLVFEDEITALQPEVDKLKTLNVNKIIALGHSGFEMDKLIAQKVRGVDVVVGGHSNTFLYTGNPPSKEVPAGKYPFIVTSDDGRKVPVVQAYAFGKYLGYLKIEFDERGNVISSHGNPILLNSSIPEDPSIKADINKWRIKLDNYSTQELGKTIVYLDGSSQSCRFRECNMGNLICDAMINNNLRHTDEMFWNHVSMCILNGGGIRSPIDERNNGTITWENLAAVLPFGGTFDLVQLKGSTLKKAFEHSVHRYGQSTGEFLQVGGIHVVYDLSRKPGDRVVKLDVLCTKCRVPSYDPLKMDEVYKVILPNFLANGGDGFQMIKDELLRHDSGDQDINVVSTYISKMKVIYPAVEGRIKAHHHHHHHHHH


Assays:
[1] = molecular target: T1, CD73 on the surface of human cells; test: cell-based or functional assay
[2] = molecular target: T2, extracellular domain of human CD73 …; test: ELISA on human CD73-ECD, 100 µL supernatant of transfected HEK293F cells; PBS blank 0.0675
Description: (§1) The CD73 protein extracellular region (CD73-ECD) was diluted to 1 μg/mL using the coating solution, and an ELISA plate was coated at 100 μL/well at 4° C. overnight. Excess antigens were washed away, and the plate was blocked with 1% BSA at room temperature for 2 hours. Then, 5-fold gradient dilutions of each monoclonal antibody were added at 100 μL/well and incubated at room temperature for 1 hour. Unbound antibodies were washed away, and an appropriate concentration of Staphylococcal protein A labeled with horseradish peroxidase was added at 100 μL/well and incubated at room temperature for 0.5 hours. Unbound secondary antibodies were washed away, and TMB color development solution was added to react for about 15 minutes. 1M HCL was added at 50 µL/well to terminate the color development reaction, and then the absorbance was measured at 450 nm and the data was analyzed.
(§2) For the five antibodies from yeast, after transient expression in HEK293F cells, the supernatant was collected after 2 days of continuous culture and ELISA assay was performed using 100 μL, 10 μL, and 1 μL of the supernatant.

[3] = molecular target: T2, extracellular domain of human CD73 …; test: ELISA on human CD73-ECD, 1 µL supernatant of transfected HEK293F cells; PBS blank 0.073
Description: as §1, §2

[4] = molecular target: T2, extracellular domain of human CD73 …; test: ELISA on human CD73-ECD, 10 µL supernatant of transfected HEK293F cells; PBS blank 0.0615
Description: as §1, §2

Binder | EC50, reversal of the AMP inhibition of human T lymphocyte proliferation [1] [µg/mL] | IC50, inhibition of the catalytic function of CD73 enzyme on MDA-MB-231 cells [1] [µg/mL] | ELISA (OD450) [2] [OD450] | ELISA (OD450) [3] [OD450] | ELISA (OD450) [4] [OD450]
chimeric nanobody 2-B10 (Fc fusion, Tested as supernatant of transiently transfected HEK293F cells) VHH: QLQLVESGGGLVQPGGSLRLSCAASGFTLDDNAIGWFRQAPGKEREGVACMRTSDGDTYYADSVKGRFTISRDNAKNTMYLQMNSLKPEDTAVYYCAAALGTYYSGFYYLAGDGMDYWGKGTLVTVSS | – | – | 4.46 | 0.254 | 1.28
chimeric nanobody 1-E7 (Fc fusion, Tested as supernatant of transiently transfected HEK293F cells) VHH: QVQLVESGGGLVQPGGSLRLSCAASGFTLDYYNIGWFRQAPGKEREGVSCISNSDGSTYYADSVKGRFTISRDNAKNTVYLQMNSLKPEDTAVYYCAAYRGWHPSLDARVYDYWGQGTQVTVSS | – | – | 4.11 | 0.36 | 1.61
chimeric nanobody 3-A3 (Fc fusion, Tested as supernatant of transiently transfected HEK293F cells) VHH: QVQLVESGGGSVQPGGSLRLSCAASGFPLDYYTIGWFRQAPGKELEGVSCISSSDSSPYDADSVKGRFTMSRDNANNTVYLQMNSLKPEDTAVYYCAAQRYYYCSLRANVYDYWGQGTQVTVSS | – | – | 4.27 | 0.605 | 2.11
chimeric nanobody 2-G9 (Fc fusion, Tested as supernatant of transiently transfected HEK293F cells) VHH: QLQLVESGGGLVQPGGSLRLSCAASGFLLDYYTIGWFRQAPGKELEGVSCISSSDSSPYDADSVKGRFTMSRDNANNTVYLQMNSLKPEDTAVYYCAAQRYYYCALRANVYDYWGQGTQVTVST | – | – | 4.41 | 0.924 | 3.35

The remaining lines, values ahead:

EC50, reversal of the AMP inhibition of human T lymphocyte proliferation [1] [µg/mL] | IC50, inhibition of the catalytic function of CD73 enzyme on MDA-MB-231 cells [1] [µg/mL] | ELISA (OD450) [2] [OD450] | ELISA (OD450) [3] [OD450] | ELISA (OD450) [4] [OD450] | Binder
0.0197 | – | – | – | – | humanized nanobody-drug conjugate 3D7-HM9-FC1-MMAE (Fc fusion, part only; not given: Fc segment and drug payload, part only, vc-MMAE on cysteines; expected DAR 4 for the dimer) VHH, part: QRQLVESGGGLVQPGGSLRLSCAASGFLLDYYVIGWFRQAPGKEREGVSCISGSDRSTYYADSVKGRFTISRDNAKNTVYLQMSSLRAEDTAVYYCAADPSPVTVQAMCLPRFPVPYWGKGTLVTVSS
0.0467 | 0.123 | – | – | – | humanized antibody fusion protein 3D7-HM9-ABD (VHH) VHH: QRQLVESGGGLVQPGGSLRLSCAASGFLLDYYVIGWFRQAPGKEREGVSCISGSDRSTYYADSVKGRFTISRDNAKNTVYLQMSSLRAEDTAVYYCAADPSPVTVQAMCLPRFPVPYWGKGTLVTVSS
– | – | 3.01 | 0.143 | 1.11 | chimeric nanobody 3-F1 (Fc fusion, Tested as supernatant of transiently transfected HEK293F cells) VHH: QVQLVESGVSLVQPGGSLRLSCAASGFTLDYYTIGWFRQAPGKELEGISCIRSSDSSPYDADSVKDRFTMSRDNANNTVYLQMNSLKPEDTADYYCAAQRYYYCSLTANVYDYWGQGTQVTVSS
